Laboratory results reported in patent publication US5599792A, “Bone-stimulating, non-vasoactive parathyroid hormone variants” (Allelix Biopharmaceuticals Inc., priority 1994, dated 1997).
Changes are numbered by the printed parent chain.

B1: [Val^8 Leu^18 ]hPTH (protein, UniProt P01270 32-115, looked up, variant M8V M18L)
Parathyroid hormone: SVSEIQLVHNLGKHLNSLERVEWLRKKLQDVHNFVALGAPLAPRDAGSQRPRKKEDNVLVESHEKSLGEADKADVNVLTKAKSQ
modifications: Parathyroid hormone
B2: [Lys^8 Leu^18 ]: structurally related human PTH variant presented for comparison; Met8 replaced by Lys, Leu at 18 (protein, UniProt P01270 32-115, looked up, variant M8K M18L)
Parathyroid hormone: B1 Parathyroid hormone with V8K
modifications: Parathyroid hormone
B3: [Cys^8 Leu^18 ]hpTH (protein, UniProt P01270 32-115, looked up, variant M8C M18L)
Parathyroid hormone: B1 Parathyroid hormone with V8C
B4: [Cys^8 ]hPTH (protein, UniProt P01270 32-115, looked up, variant M8C)
Parathyroid hormone: B1 Parathyroid hormone with V8C, L18M
B5: [Ala^8 ]hPTH (protein, UniProt P01270 32-115, looked up, variant M8A)
Parathyroid hormone: B1 Parathyroid hormone with V8A, L18M
modifications: Parathyroid hormone

Test system: rat osteosarcoma cells of the UMR line (UMR-106), adenylate cyclase activity
Assay: UMR-106 based adenylate cyclase assay (cAMP formation)
Type: cell-based
Settings: UMR-106 cells, radiometric cAMP formation; read-out: EC50 (concentration of PTH or variant effective for half-maximal stimulation of adenylate cyclase activity)
From the text: In the present specification, "bone stimulating activity" is defined in the context of the osetosarcoma-based adenylate cyclase assay employed conventionally in the art. Briefly, this assay provides an in vitro determination of the extent to which PTH stimulates adenylate cyclase activity in rat osteosarcoma cells of the `UMR` lineage, and thus provides an indication of PTH effects on bone tissue in vivo. Protocols for conducting the assay have been described by Rodan et al, 1983, J. Clin. Invest., 72:1511 (in which the osteosaracoma cells of the ROS lineage are employed) and by Rabbani et al, 1988, Endocrinol., 123:2709 (which employs the line UMR-106).
Thawed or fresh samples of human PTH(1-84) and of PTH variants obtained as described above were then evaluated for biological activity in a UMR-106 based adenylate cyclase assay and the protocol as described by Rabbini et al, 1988, Endocrinology, 123:2709, which is incorporated herein by reference. As noted, rat osteosarcoma cells of the UMR line are stimulated by PTH to produce adenylate cyclase, an enzyme which catalyzes intracellular conversion of ATP to its cylic monophosphate analogue, cAMP. In this assay therefore, PTH activity is determined by assaying radiometrically the formation of cAMP in PTH-stimulated UMR cells. The results of the assays, expressed in terms of EC50 (concentration of PTH or variant effective for half-maximal stimulation of adenylate cyclase activity), are presented in Table 1.

| Molecule | EC50 [nM] |
| --- | --- |
| human PTH(1-84) | 2 |
| B1 | 110 |
| B2 | > 5000 |
| B3 | 200 |
| B4 | 400 |
| B5 | 1200 |
